# System: endogenous PP1α
# Experiment: GFP affinity capture / co-IP of endogenous PP1α with GFP-tagged bait
# Type: binding, human
# Conditions: HEK 293T cells, 24 h post-transfection, GFP-Trap, immunoblot; representative of two independent experiments
# Text: Bacterial expression plasmids encoding the mouse PP1γ catalytic domain (residues 7–300)-H6 and pUL21-H6, and mammalian expression vectors encoding pUL21(FV242AA)-GFP, pORF38-GFP and pORF38(FV255AA)-GFP, were described previously ([23]). We note that the mouse and human PP1γ catalytic domains share 100% amino acid identity. pORF38-NLT-H6 was generated by sub-cloning residues 1 to 263 of ORF38 into the vector pOPTnH ([52]). pUL21-RVxF-H6 was generated by inserting the mutations A237V and V239F into pUL21-H6 by QuikChange site-directed mutagenesis. Human PP1α was cloned from HeLa cell cDNA into a vector derived from pF5K (Promega) with an N-terminal Myc epitope tag via restriction-based cloning, and point mutations were introduced into Myc-PP1α by QuikChange mutagenesis. A plasmid encoding pUL21-GFP was generated by sub-cloning a codon-optimized synthetic UL21 gene (GeneArt) into pEGFP-N1 (Clontech), yielding an identical pUL21-GFP amino acid sequence as used in ([23]). pUL21-ΔL, -ΔR and -ΔLR were generated from this vector via inverse PCR, and point mutations were introduced via QuikChange mutagenesis.
# Mycoplasma-free human embryonic kidney 293T (HEK 293T) cells (American Type Culture Collection #CRL-3216) were maintained in Dulbecco’s modified Eagle’s medium (DMEM) with high glucose (Merck), supplemented with 10% (v/v) heat-inactivated fetal calf serum and 2 mM L-glutamine (complete DMEM) in a humidified 5% CO2 atmosphere at 37 °C. The identity of the cell line was not independently confirmed.
# Monolayers of HEK 293T cells were transfected with 7.7 μg of DNA per 9 cm dish, using 18 μg/ml 25 kDa branched polyethylenimine (Merck) or using TransIt-LT1 (Mirus) in accordance with the manufacturer’s instructions. Cells were harvested 24 h post-transfection and incubated for 30 min in ice-cold 10 mM Tris pH 7.5, 150 mM NaCl, 0.5 mM EDTA, 0.5% Igepal CA-630 (a.k.a. NP-40), 1% (v/v) EDTA-free protease inhibitor cocktail (Merck) before clarification at 21,000×g for 10 min at 4 °C. Lysate protein concentrations were measured using the bicinchoninic acid (BCA) assay (Pierce) and normalized before affinity capture using GFP-Trap resin (ChromoTek) following the manufacturer’s protocol. Samples were eluted by heating the resin to 95 °C for 5 min in 45 μl 2 × SDS-PAGE loading buffer. Proteins were separated by SDS-PAGE and transferred to 0.45 μm nitrocellulose membranes (PerkinElmer or Cytiva). Membranes were stained with Ponceau S and imaged using a G:Box XX9 (Syngene) before blocking in Tris-buffered saline with 0.1% TWEEN-20 (TBS-T) supplemented with 5% (w/v) non-fat milk powder. Immunoblotting was performed using antibodies diluted in blocking buffer as listed below, and immunoblots were imaged using an Odyssey CLx (LI-COR Biosciences). Densitometry was performed using Image Studio Lite version 5.2 (LI-COR Biosciences), and statistical tests were performed using Prism version 7 (GraphPad).
# The following primary antibodies and dilutions were used for immunoblotting: rabbit anti-CERT 1:10,000 (Abcam #Ab72536), mouse anti-PP1α 1:1000 (Santa Cruz #sc-271762), mouse anti-Myc 1:4000 (Millipore #05–724), rat anti-tubulin (clone YL1/2) hybridoma supernatant 1:40 ([54]). The anti-CERT antibody was validated using a knock-out cell line. The anti-PP1α antibody has been validated by siRNA knockdown ([55]). The anti-Myc antibody was validated using control experiments lacking Myc-tagged transfected constructs ([56]). The anti-tubulin antibody has been validated by immunofluorescence microscopy, immuno-electron microscopy and radiolabeled immunosorbent assay ([54]). Secondary antibodies from LI-COR Biosciences were diluted 1:10,000 as follows: IRDye 680RD goat anti-rat (#926–68029) and goat anti-mouse (#926–68020), or IRDye 800CW goat anti-rabbit (#926–32221).
row,Molecule,Co-IP of endogenous PP1α
1,"H247F (protein, left off: GFP (from the vector pEGFP-N1), end not stated, kept) MELSYATTMHYRDVVFYVTTDRNRAYFVCGGCVYSVGRPCASQPGEIAKFGLVVRGTGPDDRVVANYVRSELRQRGLQDVRPIGEDEVFLDSVCLLNPNVSSELDVINTNDVEVLDECLAEYCTSLRTSPGVLISGLRVRAQDRIIELFEHPTIVNVSSHFVYTPSPYVFALAQAHLPRLPSSLEALVSGLFDGIPAPRQPLDAHNPRTDVVITGRRAPRPIAGSGAGSGGAGAKRATVSEFVQVKFIDRVGPAGVSPAPPPNNTDSSSLVPGAQDSAPPGPTLRELWWVFYAADRALEEPRADSGLTREEVRAVRGFREQAWKLFGSAGAPRAFIGAALGLSPLQKLAVYYYIIHRERRLSPFPALVRLVGRYTQRHGLYVPRPDDPVLADAINGLFRDALAAGTTAEQLLMFDLLPPKDVPVGSDVQADSTALLRFIESQRLAVPGGVISPEHVAYLGAFLSVLYAGRGRMSAATHTARLTGVTSLVLAVGDVDRLSAFDRGAAGAASRTRAAGYLDVLLTVRLARSQHGQSV",co-precipitated more PP1α than did WT pUL21-GFP
2,"Q174R (protein, left off: GFP (from the vector pEGFP-N1), end not stated, kept) MELSYATTMHYRDVVFYVTTDRNRAYFVCGGCVYSVGRPCASQPGEIAKFGLVVRGTGPDDRVVANYVRSELRQRGLQDVRPIGEDEVFLDSVCLLNPNVSSELDVINTNDVEVLDECLAEYCTSLRTSPGVLISGLRVRAQDRIIELFEHPTIVNVSSHFVYTPSPYVFALARAHLPRLPSSLEALVSGLFDGIPAPRQPLDAHNPRTDVVITGRRAPRPIAGSGAGSGGAGAKRATVSEFVQVKHIDRVGPAGVSPAPPPNNTDSSSLVPGAQDSAPPGPTLRELWWVFYAADRALEEPRADSGLTREEVRAVRGFREQAWKLFGSAGAPRAFIGAALGLSPLQKLAVYYYIIHRERRLSPFPALVRLVGRYTQRHGLYVPRPDDPVLADAINGLFRDALAAGTTAEQLLMFDLLPPKDVPVGSDVQADSTALLRFIESQRLAVPGGVISPEHVAYLGAFLSVLYAGRGRMSAATHTARLTGVTSLVLAVGDVDRLSAFDRGAAGAASRTRAAGYLDVLLTVRLARSQHGQSV",PP1α coIP was abolished
3,"VV211AA (protein, left off: GFP (from the vector pEGFP-N1), end not stated, kept) MELSYATTMHYRDVVFYVTTDRNRAYFVCGGCVYSVGRPCASQPGEIAKFGLVVRGTGPDDRVVANYVRSELRQRGLQDVRPIGEDEVFLDSVCLLNPNVSSELDVINTNDVEVLDECLAEYCTSLRTSPGVLISGLRVRAQDRIIELFEHPTIVNVSSHFVYTPSPYVFALAQAHLPRLPSSLEALVSGLFDGIPAPRQPLDAHNPRTDAAITGRRAPRPIAGSGAGSGGAGAKRATVSEFVQVKHIDRVGPAGVSPAPPPNNTDSSSLVPGAQDSAPPGPTLRELWWVFYAADRALEEPRADSGLTREEVRAVRGFREQAWKLFGSAGAPRAFIGAALGLSPLQKLAVYYYIIHRERRLSPFPALVRLVGRYTQRHGLYVPRPDDPVLADAINGLFRDALAAGTTAEQLLMFDLLPPKDVPVGSDVQADSTALLRFIESQRLAVPGGVISPEHVAYLGAFLSVLYAGRGRMSAATHTARLTGVTSLVLAVGDVDRLSAFDRGAAGAASRTRAAGYLDVLLTVRLARSQHGQSV",PP1α coIP was abolished
4,"A218E (protein, left off: GFP (from the vector pEGFP-N1), end not stated, kept) MELSYATTMHYRDVVFYVTTDRNRAYFVCGGCVYSVGRPCASQPGEIAKFGLVVRGTGPDDRVVANYVRSELRQRGLQDVRPIGEDEVFLDSVCLLNPNVSSELDVINTNDVEVLDECLAEYCTSLRTSPGVLISGLRVRAQDRIIELFEHPTIVNVSSHFVYTPSPYVFALAQAHLPRLPSSLEALVSGLFDGIPAPRQPLDAHNPRTDVVITGRREPRPIAGSGAGSGGAGAKRATVSEFVQVKHIDRVGPAGVSPAPPPNNTDSSSLVPGAQDSAPPGPTLRELWWVFYAADRALEEPRADSGLTREEVRAVRGFREQAWKLFGSAGAPRAFIGAALGLSPLQKLAVYYYIIHRERRLSPFPALVRLVGRYTQRHGLYVPRPDDPVLADAINGLFRDALAAGTTAEQLLMFDLLPPKDVPVGSDVQADSTALLRFIESQRLAVPGGVISPEHVAYLGAFLSVLYAGRGRMSAATHTARLTGVTSLVLAVGDVDRLSAFDRGAAGAASRTRAAGYLDVLLTVRLARSQHGQSV",PP1α coIP was abolished
5,"R250E (protein, left off: GFP (from the vector pEGFP-N1), end not stated, kept) MELSYATTMHYRDVVFYVTTDRNRAYFVCGGCVYSVGRPCASQPGEIAKFGLVVRGTGPDDRVVANYVRSELRQRGLQDVRPIGEDEVFLDSVCLLNPNVSSELDVINTNDVEVLDECLAEYCTSLRTSPGVLISGLRVRAQDRIIELFEHPTIVNVSSHFVYTPSPYVFALAQAHLPRLPSSLEALVSGLFDGIPAPRQPLDAHNPRTDVVITGRRAPRPIAGSGAGSGGAGAKRATVSEFVQVKHIDEVGPAGVSPAPPPNNTDSSSLVPGAQDSAPPGPTLRELWWVFYAADRALEEPRADSGLTREEVRAVRGFREQAWKLFGSAGAPRAFIGAALGLSPLQKLAVYYYIIHRERRLSPFPALVRLVGRYTQRHGLYVPRPDDPVLADAINGLFRDALAAGTTAEQLLMFDLLPPKDVPVGSDVQADSTALLRFIESQRLAVPGGVISPEHVAYLGAFLSVLYAGRGRMSAATHTARLTGVTSLVLAVGDVDRLSAFDRGAAGAASRTRAAGYLDVLLTVRLARSQHGQSV",dramatically reduced binding
6,"A232K (protein, left off: GFP (from the vector pEGFP-N1), end not stated, kept) MELSYATTMHYRDVVFYVTTDRNRAYFVCGGCVYSVGRPCASQPGEIAKFGLVVRGTGPDDRVVANYVRSELRQRGLQDVRPIGEDEVFLDSVCLLNPNVSSELDVINTNDVEVLDECLAEYCTSLRTSPGVLISGLRVRAQDRIIELFEHPTIVNVSSHFVYTPSPYVFALAQAHLPRLPSSLEALVSGLFDGIPAPRQPLDAHNPRTDVVITGRRAPRPIAGSGAGSGGKGAKRATVSEFVQVKHIDRVGPAGVSPAPPPNNTDSSSLVPGAQDSAPPGPTLRELWWVFYAADRALEEPRADSGLTREEVRAVRGFREQAWKLFGSAGAPRAFIGAALGLSPLQKLAVYYYIIHRERRLSPFPALVRLVGRYTQRHGLYVPRPDDPVLADAINGLFRDALAAGTTAEQLLMFDLLPPKDVPVGSDVQADSTALLRFIESQRLAVPGGVISPEHVAYLGAFLSVLYAGRGRMSAATHTARLTGVTSLVLAVGDVDRLSAFDRGAAGAASRTRAAGYLDVLLTVRLARSQHGQSV",did not dramatically alter PP1α coIP
7,"A237V (protein, left off: GFP (from the vector pEGFP-N1), end not stated, kept) MELSYATTMHYRDVVFYVTTDRNRAYFVCGGCVYSVGRPCASQPGEIAKFGLVVRGTGPDDRVVANYVRSELRQRGLQDVRPIGEDEVFLDSVCLLNPNVSSELDVINTNDVEVLDECLAEYCTSLRTSPGVLISGLRVRAQDRIIELFEHPTIVNVSSHFVYTPSPYVFALAQAHLPRLPSSLEALVSGLFDGIPAPRQPLDAHNPRTDVVITGRRAPRPIAGSGAGSGGAGAKRVTVSEFVQVKHIDRVGPAGVSPAPPPNNTDSSSLVPGAQDSAPPGPTLRELWWVFYAADRALEEPRADSGLTREEVRAVRGFREQAWKLFGSAGAPRAFIGAALGLSPLQKLAVYYYIIHRERRLSPFPALVRLVGRYTQRHGLYVPRPDDPVLADAINGLFRDALAAGTTAEQLLMFDLLPPKDVPVGSDVQADSTALLRFIESQRLAVPGGVISPEHVAYLGAFLSVLYAGRGRMSAATHTARLTGVTSLVLAVGDVDRLSAFDRGAAGAASRTRAAGYLDVLLTVRLARSQHGQSV",co-precipitated more PP1α than did WT pUL21-GFP

# Source: PMC12723162, “Alphaherpesvirus pUL21 homologs use non-canonical sequences to compete with cellular adaptors for protein phosphatase 1 binding” (The Journal of Biological Chemistry, 2025)
